Source: patent US20190345557
Changes are numbered by the printed parent chain.

B1: Human full-length ARHGEF26 (wild-type) with N-terminal His-SUMO tag (protein)
chain: MDGESEVDFSSNSITPLWRRRSIPQPHQVLGRSKPRPQSYQSPNGLLITDFPVEDGGTLLAAQIPAQVPTASDSRTVHRSPLLLGAQRRAVANGGTASPEYRAASPRLRRPKSPKLPKAVPGGSPKSPANGAVTLPAPPPPPVLRPPRTPNAPAPCTPEEDLTGLTASPVPSPTANGLAANNDSPGSGSQSGRKAKDPERGLFPGPQKSSSEQKLPLQRLPSQENELLENPSVVLSTNSPAALKVGKQQIIPKSLASEIKISKSNNQNVEPHKRLLKVRSMVEGLGGPLGHAGEESEVDNDVDSPGSLRRGLRSTSYRRAVVSGFDFDSPTSSKKKNRMSQPVLKVVMEDKEKFSSLGRIKKKMLKGQGTFDGEENAVLYQNYKEKALDIDSDEESEPKEQKSDEKIVIHHKPLRSTWSQLSAVKRKGLSQTVSQEERKRQEAIFEVISSEHSYLLSLEILIRMFKNSKELSDTMTKTERHHLFSNITDVCEASKKFFIELEARHQNNIFIDDISDIVEKHTASTFDPYVKYCTNEVYQQRTLQKLLATNPSFKEVLSRIESHEDCRNLPMISFLILPMQRVTRLPLLMDTICQKTPKDSPKYEVCKRALKEVSKLVRLCNEGARKMERTEMMYTINSQLEFKIKPFPLVSSSRWLVKRGELTAYVEDTVLFSRRTSKQQVYFFLFNDVLIITKKKSEESYNVNDYSLRDQLLVESCDNEELNSSPGKNSSTMLYSRQSSASHLFTLTVLSNHANEKVEMLLGAETQSERARWITALGHSSGKPPADRTSLTQVEIVRSFTAKQPDELSLQVADVVLIYQRVSDGWYEGERLRDGERGWFPMECAKEITCQATIDKNVERMGRLLGLETNV
B2: Human full-length ARHGEF26 29Leu mutant (p.Val29Leu) with N-terminal His-SUMO tag (protein)
chain: B1 chain with V29L

Biological target: Human RhoG (residues 1-188) with N-terminal His-SUMO tag, pre-loaded with GDP, P84095
Sequence (P84095 1-188): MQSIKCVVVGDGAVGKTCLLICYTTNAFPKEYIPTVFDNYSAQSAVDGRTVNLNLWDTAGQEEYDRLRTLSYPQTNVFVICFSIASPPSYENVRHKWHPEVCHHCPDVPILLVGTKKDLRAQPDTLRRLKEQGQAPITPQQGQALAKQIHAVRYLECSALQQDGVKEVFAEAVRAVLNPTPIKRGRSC

Protein | nucleotide exchange activity (GTP-GDP nucleotide exchange assay, MANT-GTP fluorescence, 60 minutes)
B1 | we observed no significant difference in nucleotide exchange activity between wild-type and 29Leu mutant ARHGEF26
B2 | we observed no significant difference in nucleotide exchange activity between wild-type and 29Leu mutant ARHGEF26
